Target: CD22-Fc fusion protein (extra-cellular domain of human CD22 fused to human IgG Fc) (human) (UniProt P20273)

## BL22, a recombinant immunotoxin containing the FV domains of RFB4 fused to PE38, a truncated form of (from UniProt P11439 278-638)
  percent inhibition of measured sCD22 level: 50%
